Laboratory results as given in publication PMC6076860 (Analytical biochemistry, 2018).

Target: the molecule itself
Assay: SEC

B1: PCD αβ dimer (protomer of the protocatechuate 3,4-dioxygenase holoenzyme complex) from Pseudomonas putida (complex)
chain 1: MPIELLPETPSQTAGPYVHIGLALEAAGNPTRDQEIWNRLAKPDAPGEHILLLGQVYDGNGHLVRDSFLEVWQADANGEYQDAYNLENAFNSFGRTATTFDAGEWTLHTVKPGVVNNAAGVPMAPHINISLFARGINIHLHTRLYFDDEAQANAKCPVLNLIEQPQRRETLIAKRCEVDGKTAYRFDIRIQGEGETVFFDF
chain 2: MPAQDNSRFVIRDRNWHPKALTPDYKTSIARSPRQALVSIPQSISETTGPNFSHLGFGAHDHDLLLNFNNGGLPIGERIIVAGRVVDQYGKPVPNTLVEMWQANAGGRYRHKNDRYLAPLDPNFGGVGRCLTDSDGYYSFRTIKPGPYPWRNGPNDWRPAHIHFGISGPSIATKLITQLYFEGDPLIPMCPIVKSIANPEAVQQLIAKLDMNNANPMDCLAYRFDIVLRGQRKTHFENC
binding result: binds
